Laboratory results taken from publication PMC7954794, “Protein context shapes the specificity of SH3 domain-mediated interactions in vivo” (Nature Communications, 2021).

System: PPIs identified as affected by the SH3 domain deletions
Assay: Liquid DHFR-PCA low-throughput validation of PPIs affected by SH3 deletion (Fig. S1D-E)
Format: cell-based, Saccharomyces cerevisiae
Conditions: bait LSB3; label = prey; liquid DHFR-PCA; prey _1 = lost, _2 = gained in screen
Summary of the method: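 Growth at 30 °C was tracked by OD each 15 min over 72 h in agar-free PCA selection medium, starting at 0.1 OD. Cells were diploids selected after mating, first cultured 48 h with NAT and HPH in synthetic complete MSG medium, pH 6.0.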

| Molecule | Ratio (Deletedscore / WTscore) |
| --- | --- |
| YFR040W_2 (protein, UniProt P43612 1-1002, looked up) SIT4-associating protein …: MSFWPFGQNLNHSNINKILDEYFHVLHELERINPSVGKAIPAIFNNVQERGTSDSLDSIPEEYSHGDEVKTARGDQKSRFEKDDQQERYEKEEEERSMNSSESSTTSFSSGSTSKTDLDEEDISNATAPMMVTTKNLDNSFIERMLVETELLNELSRQNKTLLDFICFGFFFDKKTNKKVNNMEYLVDQLMECISKIKTATTVDLNNLIDYQEQQQLDDSSQEDVYVESDTEQEEEKEDDNNSNNKKRRKRGSSSFGNDDINNNDDDDDANEDDESAYLTKATIISEIFSLDIWLISESLVKNQSYLNKIWSIINQPNFNSENSPLVPIFLKINQNLLLTRQDQYLNFIRTERSFVDDMLKHVDISLLMDFFLKIISTDKIESPTGIIELVYDQNLISKCLSFLNNKESPADIQACVGDFLKALIAISANAPLDDISIGPNSLTRQLASPESIAKLVDIMINQRGAALNTTVSIVIELIRKNNSDYDQVNLLTTTIKTHPPSNRDPIYLGYLLRKFSNHLSDFFQIILDIENDANIPLHENQLHEKFKPLGFERFKVVELIAELLHCSNMGLMNSKRAERIARRRDKVRSQLSHHLQDALNDLSIEEKEQLKTKHSPTRDTDHDLKNNNGKIDNDNNDNDDESDYGDEIDESFEIPYINMKQNIKLRTDPTVGDLFKIKLYDTRIVSKIMELFLTHPWNNFWHNVIFDIIQQIFNGRMDFSYNSFLVLSLFNLKSSYQFMTDIVISDEKGTDVSRFSPVIRDPNFDFKITTDFILRGYQDSYKFYELRKMNLGYMGHIVLIAEEVVKFSKLYKVELISPDIQVILQTEEWQYYSEEVLNETRMMYSKILGGGSYIDDGNGNIIPQLPDNTTVLTPNGDASNNNEILDSDTGSSNGTSGGGQLINVESLEEQLSLSTESDLHNKLREMLINRAQEDVDNKNTENGVFILGPPEDKNSNSNINNTNHNSNNSNNNDNNDNNDNDNDNTRNYNEDADNDNDYDHE | 1.731 |
| YLR330W_2 (protein, UniProt Q12114 1-671, looked up) Chitin biosynthesis protein …: MSSVDVLLTVGKLDASLALLTTQDHHVIEFPTVLLPENVKAGSIIKMQVSQNLEEEKKQRNHFKSIQAKILEKYGTHKPESPVLKIVNVTQTSCVLAWDPLKLGSAKLKSLILYRKGIRSMVIPNPFKVTTTKISGLSVDTPYEFQLKLITTSGTLWSEKVILRTHKMTDMSGITVCLGPLDPLKEISDLQISQCLSHIGARPLQRHVAIDTTHFVCNDLDNEESNEELIRAKHNNIPIVRPEWVRACEVEKRIVGVRGFYLDADQSILKNYTFPPVNEEELSYSKENEPVAEVADENKMPEDTTDVEQVASPNDNESNPSEAKEQGEKSGHETAPVSPVEDPLHASTALENETTIETVNPSVRSLKSEPVGTPNIEENKADSSAEAVVEEPNEAVAESSPNEEATGQKSEDTDTHSNEQADNGFVQTEEVAENNITTESAGENNEPADDAAMEFGRPEAEIETPEVNESIEDANEPAEDSNEPVEDSNKPVKDSNKPVEDSNKPVEDSNKPVEDSNKPVEDANEPVEDTSEPVEDAGEPVQETNEFTTDIASPRHQEEDIELEAEPKDATESVAVEPSNEDVKPEEKGSEAEDDINNVSKEAASGESTTHQKTEASASLESSAVTEEQETTEAEVNTDDVLSTKEAKKNTGNSNSNKKKNKKNKKKGKKK | 1.34 |
| YLR196W_2 (protein, UniProt P21304 1-576, looked up) Periodic tryptophan protein 1: MISATNWVPRGFSSEFPEKYVLDDEEVERINQLAQLNLDDAKATLEEAEGESGVEDDAATGSSNKLKDQLDIDDDLKEYNLEEYDDEEIADNEGGKDVSMFPGLSNDSDVKFHEGEKGEDPYISLPNQEDSQEEKQELQVYPSDNLVLAARTEDDVSYLDIYVYDDGAGFHSSDIPVEEGDEADPDVARGLVRDPALYVHHDLMLPAFPLCVEWLDYKVGSNSEEAANYAAIGTFDPQIEIWNLDCVDKAFPDMILGEPLDNSMVSLKSKKKKKKSKTGHITTHHTDAVLSMAHNKYFRSVLASTSADHTVKLWDLNSGNAARSLASIHSNKNVSSSEWHMLNGSILLTGGYDSRVALTDVRISDESQMSKYWSAMAGEEIETVTFASENIILCGTDSGNVYSFDIRNNENRKPVWTLKAHDAGISTLCSNKFIPGMMSTGAMGEKTVKLWKFPLDDATNTKGPSMVLSRDFDVGNVLTSSFAPDIEVAGTMVIGGVNKVLKLWDVFTNRSVRKSFKSELENVQARAKEEAQKIGKSSRIARKYTSNDNPDTVITIDDQGEDEEEREGGDEHDDMA | 1.184 |
| YMR216C_2 (protein, UniProt Q03656 1-742, looked up) Serine/threonine-protein …: MGSSINYPGFVTKSAHLADTSTDASISCEEATSSQEAKKNFFQRDYNMMKKAPAPTKSKLSLALQTSKSSSSANGTVQEDTSSKTEDFSTKSIKKKPDSGVESHVSIQSDSGPQSDSDLDSDSSISSCDERNEESLKDYRPGGYHPAFKGEPYKDARYILVRKLGWGHFSTVWLAKDMVNNTHVAMKIVRGDKVYTEAAEDEIKLLQRVNDADNTKEDSMGANHILKLLDHFNHKGPNGVHVVMVFEVLGENLLALIKKYEHRGIPLIYVKQISKQLLLGLDYMHRRCGIIHTDIKPENVLMEIGDVEGIVQMVEALDKQKREAKRLQRHVSRSSDITANDSSDEKWAECQTSMPCGSSSNSKSRSIEKDLSKRCFRRPRRHTIITGSQPLPSPISSSNFFEMRAHFCGSSHNSFSSVSGNRNIPSSINNNSINNGIGIKNSNNSFLNSVPHSVTRMFINEDSNDNNNNDNSKNKNNNNNNSNNNNNEDIMNTPLHEEQLADSLSTFDISNISQSSDTNGPYISNTMDSNSNVSTDINSPENLIQIKIADLGNACWYDEHYTNSIQTREYRSPEVLLGAPWGCGADIWSTACLIFELITGDFLFEPDEGHSYTKDDDHIAQIIELLGELPSYLLRNGKYTRTFFNSRGLLRNISKLKFWPLEDVLTEKYKFSKDEAKEISDFLSPMLQLDPRKRADAGGLVNHPWLKDTLGMEEIRVPDRELYGSGSDIPGWFEEVRDHKRH | 1.244 |
